From PMC8810155, “The eptinezumab:CGRP complex structure – the role of conformational changes in binding stabilization” (Bioengineered, 2021)

Target: T1, α-CGRP (human) 37-mer peptide (calcitonin gene-related peptide) (Homo sapiens, UniProt P06881, C-terminal amide (amidated Phe119))
T1 construct: human alpha-CGRP, mature 37-residue hormone; mature residues 26-37 correspond to 108-119 of the pro-hormone, so mature 1-37 would be 83-119; Only residues 26-37 (mature numbering; 108-119 of the pro-hormone) are visible in the complex structure; source: bought: Bachem
T1 chain: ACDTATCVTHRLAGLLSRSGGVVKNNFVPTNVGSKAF
Assay: crystal structure; CGRP mixed with the Fab, complex purified by SEC; crystals at 20°C in sitting drops, 26% PEG MME 550, 9.5 mM ZnSO4, 95 mM MES pH 6.5, 30 mM glycyl-glycyl-glycine; X-ray diffraction to 3.10 Å; 2 Fab and 2 CGRP per asymmetric unit
Conditions: both partners purified

B1: eptinezumab antigen-binding fragment (Fab) (Fab, V domains shown)
VH: EVQLVESGGGLVQPGGSLRLSCAVSGIDLSGYYMNWVRQAPGKGLEWVGVIGINGATYYASWAKGRFTISRDNSKTTVYLQMNSLRAEDTAVYFCARGDIWGQGTLVTVSS
VL: QVLTQSPSSLSASVGDRVTINCQASQSVYHNTYLAWYQQKPGKVPKQLIYDASTLASGVPSRFSGSGSGTDFTLTISSLQPEDVATYYCLGSYDCTNGDCFVFGGGTKVEIK
notes: heavy-chain part of the papain Fab of eptinezumab (humanized IgG1); light chain of eptinezumab; CDR L3 holds a disulfide bond (Cys95, Cys100 are named); also called eptinezumab Fab; source: partial endoproteolysis of eptinezumab with immobilized papain; purified by Fc depletion followed by SEC
B1: binds.
